Reference: patent publication US20140087995A1 (published 2014)
Numbered stars: 1 amine (or outer) side, 2 acyl side, 3 side chain; on linkers, the order of the positions; unused ones are H or OH. Bridge positions count the residues as written; N and C are the ends. Side chains are listed from the residue outwards. Ends that are not written are not given here. * marks the point of attachment. C20 diacid = O=C(O)CCCCCCCCCCCCCCCCCCC(=O)*; γGlu = O=C(O)[C@H](CCC(=O)[*:2])N[*:1]

Legend:
[1] = target: T1, human amylin receptor (amylin 3(a) receptor: human calcitonin receptor co-expressed with RAMP-3) (human, UniProt P30988 25-474; O60896 24-148, limits assumed); experiment: cell-based or functional assay
T1 sequence (looked up) 1: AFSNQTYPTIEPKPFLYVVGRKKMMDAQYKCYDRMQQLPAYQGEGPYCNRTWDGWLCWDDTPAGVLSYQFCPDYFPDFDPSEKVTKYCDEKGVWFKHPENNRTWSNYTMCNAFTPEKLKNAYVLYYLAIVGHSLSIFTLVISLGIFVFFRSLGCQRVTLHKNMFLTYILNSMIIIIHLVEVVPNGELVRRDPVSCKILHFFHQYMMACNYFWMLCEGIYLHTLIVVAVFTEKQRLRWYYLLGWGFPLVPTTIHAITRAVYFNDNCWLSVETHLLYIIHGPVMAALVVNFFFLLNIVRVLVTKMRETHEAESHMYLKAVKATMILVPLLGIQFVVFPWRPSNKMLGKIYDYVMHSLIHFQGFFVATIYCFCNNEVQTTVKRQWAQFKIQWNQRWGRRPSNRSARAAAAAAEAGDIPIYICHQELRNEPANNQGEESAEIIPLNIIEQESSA
T1 sequence (looked up) 2: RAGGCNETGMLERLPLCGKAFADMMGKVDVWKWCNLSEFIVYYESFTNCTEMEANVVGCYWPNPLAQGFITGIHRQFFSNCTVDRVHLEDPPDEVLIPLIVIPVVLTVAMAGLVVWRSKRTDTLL

[2] = target: T2, human calcitonin receptor (human, UniProt P30988 25-474); experiment: cell-based or functional assay
T2 sequence (looked up): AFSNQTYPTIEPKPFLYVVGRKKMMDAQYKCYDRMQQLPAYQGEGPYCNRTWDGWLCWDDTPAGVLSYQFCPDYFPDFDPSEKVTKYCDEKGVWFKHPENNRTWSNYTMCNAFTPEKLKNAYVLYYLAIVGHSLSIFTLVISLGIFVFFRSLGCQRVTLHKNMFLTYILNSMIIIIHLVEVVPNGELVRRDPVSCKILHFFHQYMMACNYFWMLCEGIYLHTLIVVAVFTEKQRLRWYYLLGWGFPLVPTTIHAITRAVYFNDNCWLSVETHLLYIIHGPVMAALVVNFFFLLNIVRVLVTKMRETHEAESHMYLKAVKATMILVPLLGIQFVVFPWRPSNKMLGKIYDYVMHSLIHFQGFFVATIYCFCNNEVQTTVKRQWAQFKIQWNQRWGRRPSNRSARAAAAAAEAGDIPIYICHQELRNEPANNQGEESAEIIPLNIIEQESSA

B1: N^ε1-[(4S)-4-carboxy-4-[[(4S)-4-carboxy-4-(19-carboxynonadecanoylamino)butanoyl]amino]butanoyl]-[His14,Arg17,Pro21,Pro27]-h-amylin (peptide)
peptide: K([γGlu-γGlu-C20 diacid])CNTATCATQRLAHFLRHSSPNFGAIPSSTNVGSNTY-NH2
modifications: disulfide 2-7; N-terminus assumed
SMILES: CC[C@H](C)[C@H](NC(=O)[C@H](C)NC(=O)CNC(=O)[C@H](Cc1ccccc1)NC(=O)[C@H](CC(N)=O)NC(=O)[C@@H]1CCCN1C(=O)[C@H](CO)NC(=O)[C@H](CO)NC(=O)[C@H](Cc1c[nH]cn1)NC(=O)[C@H](CCCNC(=N)N)NC(=O)[C@H](CC(C)C)NC(=O)[C@H](Cc1ccccc1)NC(=O)[C@H](Cc1c[nH]cn1)NC(=O)[C@H](C)NC(=O)[C@H](CC(C)C)NC(=O)[C@H](CCCNC(=N)N)NC(=O)[C@H](CCC(N)=O)NC(=O)[C@@H](NC(=O)[C@H](C)NC(=O)[C@@H]1CSSC[C@H](NC(=O)[C@@H](N)CCCCNC(=O)CC[C@H](NC(=O)CC[C@H](NC(=O)CCCCCCCCCCCCCCCCCCC(=O)O)C(=O)O)C(=O)O)C(=O)N[C@@H](CC(N)=O)C(=O)N[C@@H]([C@@H](C)O)C(=O)N[C@@H](C)C(=O)N[C@@H]([C@@H](C)O)C(=O)N1)[C@@H](C)O)C(=O)N1CCC[C@H]1C(=O)N[C@@H](CO)C(=O)N[C@@H](CO)C(=O)N[C@H](C(=O)N[C@@H](CC(N)=O)C(=O)N[C@H](C(=O)NCC(=O)N[C@@H](CO)C(=O)N[C@@H](CC(N)=O)C(=O)N[C@H](C(=O)N[C@@H](Cc1ccc(O)cc1)C(N)=O)[C@@H](C)O)C(C)C)[C@@H](C)O
notes: also called compound 92
Ratio hCT/hAmylin funct. [1]: 28 | hAmylin-R funct. EC50 [1]: 0.085 nM | hCTR funct. EC50 [2]: 2.38 nM
